{"source": "paper PMC5587734", "binders": {"B1": {"name": "INV mCpG DNA (dsDNA)", "DNA 1": "GGACCGACTC", "DNA 2": "GAGTCGGTCC", "modifications": "5mC at position 5 of strand 1; complement methylation implied"}}, "key": {"[1]": {"target": "MBD2 MBD (chicken) (chicken, UniProt Q5EFL0 1-71)", "assay": "NMR"}, "[2]": {"target": "MBD2 MBD+IDR (chicken) (chicken, UniProt Q5EFL0 1-117)", "assay": "NMR"}}, "data": [{"binder": "B1", "values": [{"measurement": "binding result", "setting": "[1]", "value": "binds"}, {"measurement": "binding result", "setting": "[2]", "value": "binds"}]}]}
